pKd: −log10 of the molar value.
Target: syntenin-1 N-terminal wild-type peptide, biotinylated (UniProt O00560)
Assay: SPR; BIAcore 3000; biotinylated syntenin-1 N-terminal peptides immobilised on streptavidin-coupled CM5 chips, ALIX V-domain injected at 20 μl/min; 10 mM HEPES pH 7.4, 150 mM NaCl, 0.005% Surfactant P20; equilibrium analysis, one-site binding model

Question: With “ALIX V-domain (ALIX 364-716) (from UniProt Q8WUM4 364-716) (domain or fragment)” as the substance, how does the pKd read?
Answer: The pKd was 4.54.

Reference: article PMC5006017
